The target in assay [1] is Gluc1-ΔN(1 to 433) (human). Nature of the assay: split reporter (BiFC, NanoBiT); Gaussia princeps protein complementation assay (GPCA): Gluc1 and Gluc2 N-terminal fusions co-transfected in HEK293T, luminescence of lysates after 48 h as normalized luminescence ratio (NLR); pairs count as interacting if NLR is above 5.
Another assay addresses Gluc1-ΔNp73α FL (human) (UniProt O15350). The description is as above.

Gluc1-ΔNp73α FL (human), sequence (O15350 other isoform, or with tags, fused parts or gaps mutant): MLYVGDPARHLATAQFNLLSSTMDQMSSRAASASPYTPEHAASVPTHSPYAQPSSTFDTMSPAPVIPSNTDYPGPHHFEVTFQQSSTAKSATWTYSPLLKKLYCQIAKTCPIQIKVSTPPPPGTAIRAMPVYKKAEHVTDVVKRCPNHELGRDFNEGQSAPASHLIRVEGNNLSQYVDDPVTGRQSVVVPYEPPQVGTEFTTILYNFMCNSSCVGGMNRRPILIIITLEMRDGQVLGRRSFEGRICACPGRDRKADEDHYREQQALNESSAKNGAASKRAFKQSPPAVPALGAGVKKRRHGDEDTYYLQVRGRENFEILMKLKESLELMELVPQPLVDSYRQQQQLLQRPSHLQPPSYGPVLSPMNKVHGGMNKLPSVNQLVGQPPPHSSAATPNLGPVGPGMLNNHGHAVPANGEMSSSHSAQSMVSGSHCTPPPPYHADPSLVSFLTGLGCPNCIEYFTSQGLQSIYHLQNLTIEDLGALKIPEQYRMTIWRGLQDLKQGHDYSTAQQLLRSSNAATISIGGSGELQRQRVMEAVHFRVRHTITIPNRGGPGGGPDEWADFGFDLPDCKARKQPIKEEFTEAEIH
Gluc2-E2F(1 to 336), sequence (Q16254 1-336): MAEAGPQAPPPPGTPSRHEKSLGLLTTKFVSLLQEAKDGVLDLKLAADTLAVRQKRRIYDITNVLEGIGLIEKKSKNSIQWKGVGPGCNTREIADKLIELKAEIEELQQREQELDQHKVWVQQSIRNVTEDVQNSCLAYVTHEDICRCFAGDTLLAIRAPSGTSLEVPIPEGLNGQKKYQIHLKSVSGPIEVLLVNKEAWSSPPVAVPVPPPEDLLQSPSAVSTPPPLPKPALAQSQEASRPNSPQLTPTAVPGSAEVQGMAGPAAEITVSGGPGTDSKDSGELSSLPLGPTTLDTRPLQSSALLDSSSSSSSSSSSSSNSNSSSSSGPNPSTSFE
Gluc1-ΔN(1 to 433) (human), sequence (O15350 other isoform, or with tags, fused parts or gaps mutant): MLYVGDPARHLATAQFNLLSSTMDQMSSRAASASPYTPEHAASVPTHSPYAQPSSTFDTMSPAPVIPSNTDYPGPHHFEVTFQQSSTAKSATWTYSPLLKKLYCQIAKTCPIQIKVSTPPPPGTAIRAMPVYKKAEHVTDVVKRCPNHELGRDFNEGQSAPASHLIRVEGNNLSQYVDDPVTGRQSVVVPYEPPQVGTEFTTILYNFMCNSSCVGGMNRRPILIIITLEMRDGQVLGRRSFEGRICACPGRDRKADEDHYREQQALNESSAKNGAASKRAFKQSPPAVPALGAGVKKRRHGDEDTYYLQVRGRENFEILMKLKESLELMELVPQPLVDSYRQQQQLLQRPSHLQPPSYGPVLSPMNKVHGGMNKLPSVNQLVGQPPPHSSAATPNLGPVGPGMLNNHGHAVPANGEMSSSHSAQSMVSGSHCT
Gluc2-E2F4 FL, sequence (Q16254 whole entry): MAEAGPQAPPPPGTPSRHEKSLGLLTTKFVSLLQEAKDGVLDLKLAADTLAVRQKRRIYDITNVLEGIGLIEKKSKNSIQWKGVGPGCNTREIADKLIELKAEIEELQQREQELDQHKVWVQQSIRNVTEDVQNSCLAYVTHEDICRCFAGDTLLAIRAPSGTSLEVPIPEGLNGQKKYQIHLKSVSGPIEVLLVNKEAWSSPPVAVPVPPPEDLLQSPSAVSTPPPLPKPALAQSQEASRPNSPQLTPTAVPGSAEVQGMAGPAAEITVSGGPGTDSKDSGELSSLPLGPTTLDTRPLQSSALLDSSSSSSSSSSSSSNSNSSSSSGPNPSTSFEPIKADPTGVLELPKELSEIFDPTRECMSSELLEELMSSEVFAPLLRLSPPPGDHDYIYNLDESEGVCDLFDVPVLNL

Turning to “Gluc2-E2F4 FL (from UniProt Q16254 1-413) (natural protein)”, in assay [1], the normalized luminescence ratio (NLR) was over 20.
In the case of “Gluc2-E2F(1 to 336) (from UniProt Q16254 1-336) (domain or fragment)”, in the assay with Gluc1-ΔNp73α FL (human), the NLR normalized to the ΔNp73α-E2F4 FL interaction came out at 60%.
